The results in this text go back to the domain aggregation screens of Martell et al. (2025).

This series in a line: soluble fraction after stress (log2 fold change); higher = more stays soluble; pooled small domains, quantitative proteomics. Particulars: stress: 50 degC. The essentials: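 Quantitative proteomics served as the high-throughput read-out for pooled custom libraries of small protein domains. Each was stressed at 50°C. Aggregation propensity is expressed as the base-two log fold change in soluble protein after stress. A higher value means a larger share of the protein remains in solution.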
Consider “HMPDAENFRYRVPYTTEQNRLQYYEGDIRAENADKARDQVMQDAQKYFAQNTAFTPNYIDTDIISLD”, for which the “soluble fraction (log2)” value is 0.034.

For the sequence “HMPDFAENAVYGKQREDSLYAHAYKHFQLGDTTTVRAAEHLSAEIYPLGQHRPKFMFLNAVTR”, the “soluble fraction (log2)” value was 0.0766.

“HMPDITAAVARTLQALRADRGWSLDQLAARSGVSKGVLVALEQGRSNPNLATLARIGDAFGVPVTLLVDL”: the “soluble fraction (log2)” value is -0.543.

Regarding “HMPDPHSEARNIVLNQLNFMPRSRKELETALAKRNIEADVAKIVLDRFEEIGMVDDAAYAEL”, the “soluble fraction (log2)” value was 0.159.

As to “HMPDPLYLINGKIVNKSDFNNIDPRSIQSIEVLKANKALEAFGNDGKNGVIKITLKSSNDQM”, the “soluble fraction (log2)” value amounted to 0.0749.

For the sequence “HMPEEGPSEDGNSFTAKFKLGSDVQGAMEQADAAAKAGLQDAGKGTGQITSRAQVGGYIYSTATA”, the “soluble fraction (log2)” value stood at 0.0661.

Take “HMPEIFYRKIHRTDHDQIALDAEMIRLLIAIDEKKSLSQIAAEVQMEPMALKKNLGKLIQLGLVEPIK”: the “soluble fraction (log2)” value was 0.137.

Consider “HMPELSNNLDRDKVALKNFNESLKDGLTPAEAYANHLTNVSKAAQEAARQSNGLPVDIDKYHNSQLAASMA”, for which the “soluble fraction (log2)” value was found to be 0.273.

As to “HMPEMAIRTLRLRNQRGAAVAAEWSRITASLLELRQVEFVNPVDQLIVLKGPEPWAGVAEELVRQLDV”, the “soluble fraction (log2)” value was -0.849.

With “HMPEQLLNTRIPLEFAGRRFDASLAELFPDYSRSRLAAWIKDGAARLDGETVAPRHTVRGGEQVEILVRM”, the “soluble fraction (log2)” value was -0.238.

In the case of “HMPERLTYVHPDGAEPMRADKALAAFLSGRISRSRLLGSFSAGKVMAGGKPVEKKLLLRAGDALEVELPEP”, the “soluble fraction (log2)” value was 0.139.

As to “HMPERMLEPLLNGNEIMKVTQLQPGPKVGLIRDALLQAQISGDVTDTESAKAFVQDYAKRNI”, the “soluble fraction (log2)” value was found to be 0.06.

As for “HMPESETIMVDVKGAVQSEGVYELPSTARVNDAIEAAGGFSDQADKKSVNLAQKLSDEAVVYVASQGENV”, the “soluble fraction (log2)” value was 0.207.

For the sequence “HMPEVTMSYSARNQVVSFSKATQYEIVDEFGTVVLRGVGNQATLRYLSRGDYFVNFGAGTEVLKK”, the “soluble fraction (log2)” value turned out to be 0.000609.

With “HMPEVYSFEVNEGAAGKRLDIFLSGEIEGLTRSFIQKLISEGMATVNQEPPRASYRVKTRDLVELQIPDPE”, the “soluble fraction (log2)” value was -0.488.

On to “HMPFDWSAFDWKGWADEALAIIKTANQDQMNKWTEDNEKIIVQAETAAPDIYKTVGDEYDKKMESFN”, for which the “soluble fraction (log2)” value was 0.11.

For the sequence “HMPFESEMKHWIHLFAHELNLKVSDKYTQKIIEIFGNNFSEIFNEMSKSSLVSSNEKDLLNALEKSGNIH”, the “soluble fraction (log2)” value is -0.678.

For the sequence “HMPFGIYGGKVSSLDDLKDKAAVLVPNDVSNEARALLLLEAQGLIKLKEGVGLEATRNDIVEN”, the “soluble fraction (log2)” value is not below 0.62.

On to “HMPFTLDGVNEGSRNDQAARMSGYLISKNLNMDFIKFFMQSWNRQNSPPLSQREINSVVDNVKRTHDRKNK”, for which the “soluble fraction (log2)” value is -1.18.

Consider “HMPGKVSDAGATAKDNRLFLEAVFWRVRTGSPWRDLPPAFGHWNSQFRRFRRWAKAGVFESLFNA”, for which the “soluble fraction (log2)” value is 0.0893.

In the case of “HMPGRKKLAIIYKNDYIGAFNLADSYRDSYEVSMYAFPKKVGKLLNRLELQGFNAYVIYDKDNEENNFNTI”, the “soluble fraction (log2)” value is -1.65.

Turning to “HMPGSGELSRRLELAIRDRTAVRVTAAAAGQERSFTLLPVAITSGRLRATDEQAGVQRTLPLSAIVAVEA”, the “soluble fraction (log2)” value is -0.0911.

Consider “HMPGTEAQDGEVLLDALRRIHPDSSTGTLRRMLTQGRVQVDGTTVHAAKAELTSGQHVEVVAR”, for which the “soluble fraction (log2)” value stood at 0.0101.

Regarding “HMPIDIEPVLQWIRDNSIDGIGPARSMYHSAAAAAGLPSYSSLQLRKWTWPLLLDAAGVQRR”, the “soluble fraction (log2)” value was -0.433.

As for “HMPIRMLQVQKTNTGYLNVRDTPSVSGALIGKVFPGDMLSSTEERDGWFLVAVPQGGTGWVSGDYVKTTS”, the “soluble fraction (log2)” value is -0.0387.

For “HMPKAPHETLSRREMEVLLLLSEGVTLTRIGDTIHVSVKTVSTYRARILQKLDLQSNAELTRYVLQHKL”, the “soluble fraction (log2)” value was -3.38.

For the sequence “HMPKHDWDAFAGAIARRVHDHGMPVSQGELVRDMMDWFAGRKDFPPPDERTVRRKVSAIWRELNG”, the “soluble fraction (log2)” value was -1.02.

Regarding “HMPKIPRLTLTETAGIMGVSQRALALAIQQGMYSWAQALPGRNKKRPIYFINAITFAKAQGIDLEEYK”, the “soluble fraction (log2)” value was -1.11.

On to “HMPKKLIWERTTSKLQLYITQDRYELKTPLMTIPFTSKSKMMVYLQQRYHLDMQEYRQIYDAG”, for which the “soluble fraction (log2)” value is -2.21.

As to “HMPKMDGLTVMEQVNQDHFVNKRPYFIVITAVGQEKITEDAFNKGANYYVMKPFNNNMLLERIKSVRK”, the “soluble fraction (log2)” value was determined as 0.294.

“HMPKYLNIYHELAQRIQEGALPAETKLPSETELMQEFEASRGTVRKAIDALQEKGFVRKHQGKGVFVLSQ”: the “soluble fraction (log2)” value is -0.371.

For “HMPLDYNELRSISPKAARQAILQILAANKGNVSATAKLLGVSRKTVYKAMHKKASGNLDDTSRAPK”, the “soluble fraction (log2)” value was -0.851.

With “HMPLITAIELDSISARSFQFNTQSGSTYFIEGSTDLKSWDVIAEVKATDSTTTYEDHRKIYHEAYFYRVRL”, the “soluble fraction (log2)” value was -2.01.

As for “HMPLITDIKIQVKNTEKVSLFVDGKYSFSLTISQLAEHKILKTNQEISAKQVAEFKKLSNLTNLYIRIVG”, the “soluble fraction (log2)” value was -0.149.

Take “HMPLITLSAEIQSEQIGQRLDQTLAELFPEYSRSRLKTWIEADLVKLNNQIVNIPREKVLGGEHVEITVDI”: the “soluble fraction (log2)” value was -0.611.

Consider “HMPLNRFLNLPHEDKERVLLIAKKQFSTHGYDAMSLNLLLKELDISKGQFYYWFEDKADLFFTVL”, for which the “soluble fraction (log2)” value stood at 0.0032.

As for “HMPLRPNQRQFIHLMVYQGLDRNEAYAQANNKVLTEENYESIRTAAAKTFYTPHVNNYYHALMEEIRDRE”, the “soluble fraction (log2)” value is -0.299.

Take “HMPLSVRQRMSDILSNLKTSDFTNFADLFDPKEGRTGITVTFIAILELLREFLIEVVQSDHYQPLHVRAAS”: the “soluble fraction (log2)” value is -0.291.

Regarding “HMPLTAASLQTYLRGVDYPASKQDLIAHARKSDAPEDAITVLEQYSEQTYRSAADVSAEFGS”, the “soluble fraction (log2)” value worked out at 0.178.

As to “HMPLTEMAVRKHLSAELAQKGYTIDPRALEILLQRTNTNLTAIANELPKLLLVAEDKQITVNEVSAM”, the “soluble fraction (log2)” value was -0.164.

“HMPLTKKLETLFSLFPKYEKELKKKGVTRIHVWANYKEEYPDGIGRSQFIHYYSFWKKQVSP”: the “soluble fraction (log2)” value was -0.118.

Turning to “HMPLVIIRGIEGVFSSEEKAEAIRKVTDALVSVKGENVRGFAWVVFEEVKSGDWGIGGESITAEKVIMSL”, the “soluble fraction (log2)” value is -0.0828.

As to “HMPMDDETWDALSLFAYKRYARENGWPLMIGAEALRDTFASYFPLDSSTWQDRSSHYLTYQDGIYTRT”, the “soluble fraction (log2)” value was -0.53.

Turning to “HMPMDYFELFNIPRNANRETIKKILDQEYEKYRARVVSPVLEIRHEAELMLVEISKAKQVLLG”, the “soluble fraction (log2)” value was found to be 0.111.

In the case of “HMPMHPEDLKKLVSIEMPFGKHKGRIIADLPGNYLNWFAREGFPPGEIGRLLQLMQEIDHNGLSDLLKPLR”, the “soluble fraction (log2)” value is -0.3.

In the case of “HMPMNISDIIKQAREELGMTQEDLAERLEVSRQAVSKWELGASVPSPENLRLLEELLGVELPAP”, the “soluble fraction (log2)” value was -0.0297.

For “HMPNFDPSYILDFGDVIQLQLVGQKNQILEIPILRDGSVNLPDIGKIFLSGMSLEEATKIIKDTYSA”, the “soluble fraction (log2)” value is -0.679.

As for “HMPNGEAYQRFTYENDILEGRFEEWDSLGTDIVKGDYTAGVRHKKWLYYDSEGRRDKFVFLDMDSI”, the “soluble fraction (log2)” value is 0.0763.

As to “HMPNNNDIVLDRVSFGYHEKEVLHGIDMTIREGTVNALVGPSGSGKSTIAKLIAGLWDVDGGSISF”, the “soluble fraction (log2)” value stood at 0.154.

Consider “HMPNPSAGRVHIDALLPFDRVEVTDMQGSLLLDHSFSPRRAVDLDLNARGTLLYTLWSKGHLLGKGRVVR”, for which the “soluble fraction (log2)” value came to 0.0169.

As to “HMPNQLLELVEMEIRDLLNEYEFPGDDTPIIQGSALKALEDPMGPWGDKIMDLMDAVDSYIPDPE”, the “soluble fraction (log2)” value was -0.581.

For the sequence “HMPPAIKTLMFMIQNKSLLKSPKQLAVVQQQLKKIKGVRDVLILLEEGKVMLKVNKHETIHEASIIRLLGG”, the “soluble fraction (log2)” value was -0.521.

Regarding “HMPPALTELLSVRTNASGTIDYLLPDRSAGLRVENGSKYSGMVPDSIYRLVAIYEIKDAKEPSAYIYTI”, the “soluble fraction (log2)” value is -0.00921.

With “HMPPFDDILAEYYEPLYRHVRRMVVSHDDAKDVMQEAMLRIFQGLDGLKDPSAVRTWVWRIATNEALRH”, the “soluble fraction (log2)” value was 0.0662.

Turning to “HMPPPVDLDKKGYKLRGIVLEDGRSAAFVFVPAEKRVVVLRENASGPVRLLETGMRRIRLQTPEGAGYLEL”, the “soluble fraction (log2)” value was -0.724.

In the case of “HMPPQPATQNTKAQVMQLAREKELMAGEGRGANVEALEKFANEHGISLRGMTEEQAEQLVKLLMEYTP”, the “soluble fraction (log2)” value was -0.258.

On to “HMPPRFVPATGADLRRWLDVSGLTAEAAGDLLGVSGARFRQWLSRYRSAPLPDPVRALLVALLRP”, for which the “soluble fraction (log2)” value is -0.155.

For the sequence “HMPPSRFNELSMWFQEQLTEAGLKVDSGALKMLIEWLGQDQARLPSIIEVLVSTYGTKKKLTVDEIEPFL”, the “soluble fraction (log2)” value amounted to 0.234.

In the case of “HMPPTSADGIEKYLASGMIRGVGPVYAKKLVSAFGDKVFDIIEAAPHQLQEVEGIGRVRAASILAAWAEQ”, the “soluble fraction (log2)” value amounted to 0.134.

Regarding “HMPQLEDLEPLDSSGMVRRDGPHLVLAVGRHRGRHLEEVRDSDPSYLHWLLSPKGIEDIQAKEDIKTYLNL”, the “soluble fraction (log2)” value is 0.0519.

On to “HMPQLVGDVDGDGRVSVTDGEWIRASYGALPWYAGWRAAADLDGSRKIDVVDLELLRTKMGN”, for which the “soluble fraction (log2)” value is -0.191.

As to “HMPRIYSITINPEKIRTVIGPGGKVIKDITAKTGTKIEIDDSGKVDIFSPDEEHARMAVEIINTLTEE”, the “soluble fraction (log2)” value came to 0.14.

For the sequence “HMPRKYFPFYFTFRETAQTMPPRLRAVFYEAIIEYGTTGKEPTLPKSIAGYWPLVKPTLDSAKAHYDAG”, the “soluble fraction (log2)” value is -0.831.

Turning to “HMPRNEIQRSVLNELVQWIKNNLAKKLTMQALSRFSGYSEWHLFRLFRHYFNMSPMAYIRQQRMQ”, the “soluble fraction (log2)” value is -0.265.

Regarding “HMPRPRIHSVVRGDTLYGISRQYGVAMSKLASLNGLKSPYRIMVGRSLRLPSAIEAERDRTAREVVQ”, the “soluble fraction (log2)” value was -1.45.

Turning to “HMPRVLSSYTLTLRHQPTAEAVALVRTLLSPAGSVEVKEDGRTLVVRDELAALSRIVGALRSFDH”, the “soluble fraction (log2)” value is -0.404.

On to “HMPRVSIEKIKKVVELLKHNPDYTYSKIGNIVGIGRKTVSGINNGKLYTDLVEELGINEFPI”, for which the “soluble fraction (log2)” value is -0.292.

Turning to “HMPRYQQIARQLKTAIEHGELKPGARLPSSRTWSQELGISRSTVESAYTELVAQGWLERRGQAGTFVSAQL”, the “soluble fraction (log2)” value is -0.749.

For “HMPRYSGMFAAWLHKALARMGKSMSDSARSAFTERVELDYSSANNELQKLSLLVGDRKVITEADVMRAIG”, the “soluble fraction (log2)” value is -0.292.
